We go through seven variants from FireProtDB (doi:10.1021/bi0118052).

First the molecules themselves.
B1: Protein S100-B, P04271 (parent)
chain: MSELEKAMVALIDVFHQYSGREGDKHKLKKSELKELINNELSHFLEEIKEQEVVDKVMETLDNDGDGECDFQEFMAFVAMVTTACHEFFEHE

The series covers variants of B1. The settings on record: Homo sapiens; pH 7.2; 25 °C; GdnHCl; CD; MOPS 10 mM; KCl 50 mM; reversible: yes; structure 1UWO; whole UniProt chain shown.

Several values for one entry are separate records, joined by “and”; a condition that tells them apart may be missing. Equal values may be shown once.

Turning to M8A, the “ddG of mutation (higher = less stable)” value was 0.65 kcal/mol, the denaturant m value came to 1.36 kcal/mol/M and the “denaturant midpoint (higher = more stable)” value (“denaturant midpoint” below) stood at 3.6 M.

Turning to I12A, the denaturant m value is 2.75 kcal/mol/M and 1.43 kcal/mol/M; the “denaturant midpoint” value was 2.3 M and 4.2 M; the unfolding free energy came to 13.2 kcal/mol.

On to L4A, for which the denaturant m value was 3.49 kcal/mol/M and 1.58 kcal/mol/M; the “denaturant midpoint” value was 2.7 M and 3.7 M; the unfolding free energy was 16.1 kcal/mol.

For L4S, the denaturant m value is 3.3 kcal/mol/M and 2.29 kcal/mol/M; the “denaturant midpoint” value was 2.4 M and 3.2 M; the unfolding free energy stood at 14.5 kcal/mol.

On to F15A, for which the “ddG of mutation (higher = less stable)” value was 7.53 kcal/mol and 3.42 kcal/mol; the denaturant m value is 1.94 kcal/mol/M and 1.08 kcal/mol/M; the “denaturant midpoint” value is 1.8 M and 2.3 M; the unfolding free energy worked out at 9.78 kcal/mol.

For L4A I12A, the denaturant m value was 2.84 kcal/mol/M and 1.77 kcal/mol/M; the “denaturant midpoint” value is 2.1 M and 3.3 M; the unfolding free energy was determined as 12.2 kcal/mol.

Turning to L4A F15A, the “ddG of mutation (higher = less stable)” value is 8.94 kcal/mol and 5.16 kcal/mol; the denaturant m value is 1.67 kcal/mol/M and 0.81 kcal/mol/M; the “denaturant midpoint” value is 1.3 M and 1.7 M; the unfolding free energy turned out to be 8.39 kcal/mol.
